Measured values: IntAct's records for PubMed 31031754

B1: Phosphatidylinositol 4,5-bisphosphate 3-kinase catalytic subunit delta isoform (Homo sapiens), O00329 (parent)
chain: MPPGVDCPMEFWTKEENQSVVVDFLLPTGVYLNFPVSRNANLSTIKQLLWHRAQYEPLFHMLSGPEAYVFTCINQTAEQQELEDEQRRLCDVQPFLPVLRLVAREGDRVKKLINSQISLLIGKGLHEFDSLCDPEVNDFRAKMCQFCEEAAARRQQLGWEAWLQYSFPLQLEPSAQTWGPGTLRLPNRALLVNVKFEGSEESFTFQVSTKDVPLALMACALRKKATVFRQPLVEQPEDYTLQVNGRHEYLYGSYPLCQFQYICSCLHSGLTPHLTMVHSSSILAMRDEQSNPAPQVQKPRAKPPPIPAKKPSSVSLWSLEQPFRIELIQGSKVNADERMKLVVQAGLFHGNEMLCKTVSSSEVSVCSEPVWKQRLEFDINICDLPRMARLCFALYAVIEKAKKARSTKKKSKKADCPIAWANLMLFDYKDQLKTGERCLYMWPSVPDEKGELLNPTGTVRSNPNTDSAAALLICLPEVAPHPVYYPALEKILELGRHSECVHVTEEEQLQLREILERRGSGELYEHEKDLVWKLRHEVQEHFPEALARLLLVTKWNKHEDVAQMLYLLCSWPELPVLSALELLDFSFPDCHVGSFAIKSLRKLTDDELFQYLLQLVQVLKYESYLDCELTKFLLDRALANRKIGHFLFWHLRSEMHVPSVALRFGLILEAYCRGSTHHMKVLMKQGEALSKLKALNDFVKLSSQKTPKPQTKELMHLCMRQEAYLEALSHLQSPLDPSTLLAEVCVEQCTFMDSKMKPLWIMYSNEEAGSGGSVGIIFKNGDDLRQDMLTLQMIQLMDVLWKQEGLDLRMTPYGCLPTGDRTGLIEVVLRSDTIANIQLNKSNMAATAAFNKDALLNWLKSKNPGEALDRAIEEFTLSCAGYCVATYVLGIGDRHSDNIMIRESGQLFHIDFGHFLGNFKTKFGINRERVPFILTYDFVHVIQQGKTNNSEKFERFRGYCERAYTILRRHGLLFLHLFALMRAAGLPELSCSKDIQYLKDSLALGKTEEEALKHFRVKFNEALRESWKTKVNWLAHNVSKDNRQ

Variants of: B1
Conditions: with p85a_human PIK3R1, P27986
p85a_human PIK3R1, P27986, sequence (P27986 whole entry): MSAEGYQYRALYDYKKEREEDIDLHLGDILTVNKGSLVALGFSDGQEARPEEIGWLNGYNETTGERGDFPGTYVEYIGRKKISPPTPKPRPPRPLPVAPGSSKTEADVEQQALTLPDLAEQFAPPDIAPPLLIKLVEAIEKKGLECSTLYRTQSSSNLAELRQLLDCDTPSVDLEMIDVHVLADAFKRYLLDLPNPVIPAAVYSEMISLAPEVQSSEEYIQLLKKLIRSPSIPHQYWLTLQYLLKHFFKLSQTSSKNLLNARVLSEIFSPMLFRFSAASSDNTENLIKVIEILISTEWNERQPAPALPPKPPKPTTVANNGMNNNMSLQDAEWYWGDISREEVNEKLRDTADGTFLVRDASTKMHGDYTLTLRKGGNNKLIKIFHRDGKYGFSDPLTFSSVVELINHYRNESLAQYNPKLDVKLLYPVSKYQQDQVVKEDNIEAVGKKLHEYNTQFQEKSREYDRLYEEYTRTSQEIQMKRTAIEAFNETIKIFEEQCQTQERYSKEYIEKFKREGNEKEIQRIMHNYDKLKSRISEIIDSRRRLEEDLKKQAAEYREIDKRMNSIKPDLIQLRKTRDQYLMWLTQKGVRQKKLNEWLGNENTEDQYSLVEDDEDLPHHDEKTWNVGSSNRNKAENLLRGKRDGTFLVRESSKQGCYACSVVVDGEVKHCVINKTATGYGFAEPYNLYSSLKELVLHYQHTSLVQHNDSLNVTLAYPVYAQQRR

Variant	effect of a mutation on the interaction
Y524S	with no effect
